Experimental data reported in patent publication US20070185028A1, “Compositions and methods for treatment of protein misfolding and protein aggregation diseases” (priority 2004, published 2007).

Columns and labels:
[1] = molecular target: Human γD crystallin (human) (UniProt P07320); assay: cell-based or functional assay
beta amyloid = beta amyloid (UniProt P05067); assay: cell-based or functional assay

Sequence of Human γD crystallin (human) (P07320 2-174 limits assumed): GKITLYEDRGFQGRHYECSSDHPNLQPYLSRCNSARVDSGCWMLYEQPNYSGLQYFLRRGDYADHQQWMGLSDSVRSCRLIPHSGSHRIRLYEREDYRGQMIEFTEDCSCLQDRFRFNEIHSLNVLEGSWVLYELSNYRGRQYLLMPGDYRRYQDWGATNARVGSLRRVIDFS

Δfluorescence (γD crystallin), Thioflavin T, 72 h at 50° C (no chaperone: 888,803,840) [1]: 1.08e+09
Δfluorescence (Aβ), Thioflavin T, 72 h at 50° C (no chaperone: 1,324,974,048) (beta amyloid): 3.18e+08
Substance: human αB crystallin (from UniProt P02511 1-175)
